Patent publication US20180196057A1 (VENTANA MEDICAL SYSTEMS, published 2018)
Positions count from the first letter of the chain named.

Columns and labels:
human amphiregulin = target: T1, human amphiregulin (human, UniProt P15514 20-252); assay: IHC on FFPE carcinoma cell lines and colorectal cancer cases (OptiView DAB)
T1 construct: Endogenous protein in FFPE tissue sections and cell lysates (IHC, Western blot); also called AREG; pro-AREG
T1 sequence: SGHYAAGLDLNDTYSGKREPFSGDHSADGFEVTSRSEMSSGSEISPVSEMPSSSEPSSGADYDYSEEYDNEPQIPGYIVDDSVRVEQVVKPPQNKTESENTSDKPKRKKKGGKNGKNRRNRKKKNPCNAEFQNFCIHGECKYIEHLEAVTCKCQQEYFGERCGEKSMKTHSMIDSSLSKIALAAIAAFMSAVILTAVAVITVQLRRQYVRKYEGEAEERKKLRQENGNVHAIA
Method: (§1) All assay optimization were performed on human non-small cell lung carcinoma (NSCLC) (NCI-H1975; NCI-H1650; H460; NCI-HCC827; H2228; Calu-3; H820), breast (MCF7; A431) carcinoma cell lines and colorectal cancer tissues. Stained slides for the tested conditions were evaluated by a trained pathologist and the optimal staining conditions were determined based on the staining intensity, percentage of positive cells and the level of non-specific (background) staining.
(§2) The assay performance of EREG/AREG IHC assays were evaluated on 8 colorectal cancer cases kindly provided by Dr. Paul Waring. Specimens were immunohistochemically stained for EREG expression with clone J5H1L1 and for AREG expression with J111H1L10 on a VENTANA BenchMark XT IHC/ISH instrument.

human pro-epiregulin [1] = target: T2, human pro-epiregulin (human, UniProt O14944 30-169); assay: as above
T2 construct: Endogenous protein in FFPE tissue sections, xenografts and cell lysates (IHC, Western blot); also called EREG; pro-EREG
T2 sequence: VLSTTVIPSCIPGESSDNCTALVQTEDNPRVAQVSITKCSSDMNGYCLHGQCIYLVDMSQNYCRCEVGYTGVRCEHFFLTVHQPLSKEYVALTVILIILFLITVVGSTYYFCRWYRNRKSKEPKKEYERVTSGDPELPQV
Method: as §1, §2

human pro-epiregulin [2] = target: T2, human pro-epiregulin; assay: recombinant antibodies screened for binding to human pro-epiregulin by IHC

B1: anti-human amphiregulin monoclonal antibody J111H1L10 (antibody, V domains shown)
VH: QSLEESRGGLIKPGGTLTLTCTVSGFSLSSYAISWVRQAPGNGLEWIGFIVGSSGSAYYASWAKSRSTITRDTNLNTVTLKMTSLTAADTATYFCAKGLYSGGNYWGPGTLVTVSS
VL: AVLTQTPSPVSAAVGGTVSISCQSSQSVDENNYLSWFQQKPGQPPKLLIYRASTLESGVPSRFSGSGSGTQFTLTVSGVQCDDAATYYCLGGYSGYSDDGFGGGTEVVVK
notes: also called clone J111H1L10; AREG J111H1L10
Human amphiregulin
  binding result: binds

B2: anti-human pro-epiregulin monoclonal antibody J5H1L1 (antibody, V domains shown)
VH: QSVEESGGRLVTPGTPLTLTCTVSGFSLSRYGMSWVRQAPGKGLEYIGSINRTAYTYYATWAKGRFTISRTSTTVDLRMTSLTTEDTATYFCARGLTYGGSDYDYDDALWGPGTLVTVSS
VL: QVLTQTPSSVSAAVGGTVTINCQASQSVYKNKNLAWYQQKPGQPPKLLIYRASTLASGVSSRFKGSGSGTQFTLTISGVQCADAATYYCQGEFSCSTFDCILFGGGTEMVVK
notes: also called clone J5H1L1; EREG J5H1L1
Human pro-epiregulin [1]
  binding result: binds

B3: anti-human pro-epiregulin monoclonal antibody J89H12L3 (antibody, V domains shown)
VH: KSVEESGGRLVTPGTPLTLTCTVSGIDLSTFAMAWVRQAPGKGLEYIGFISLSDATYYATWAKGRFTISKSSSTTVDLKIITPTAEDTATYFCARVVGDSSGYPNTFHPWGPGTLVTVSS
VL: QVLTQTPSPVSAAVGGTVTINCQASQSIHNSDFLAWYQQKPGQPPKLLIYRASKLPSGVPSRFKGSGSGTQFTLTISDLECDDAATYYCQGTYYSGGWYFTFGGGTEVVVK
notes: also called clone J89H12L3
Human pro-epiregulin [2]
  binding result: binds

B4: anti-human pro-epiregulin monoclonal antibody J89H12L8 (antibody, V domains shown)
VH: B3 VH
VL: B3 VL with S27N
notes: also called clone J89H12L8
Human pro-epiregulin [2]
  binding result: binds
